This is an account of results in patent EP0853661B1.

The IC50 is the concentration at which inhibition is half-maximal. A lower IC50 goes with greater potency.

Assay [1] concerns the target TGFβ3 (transforming growth factor beta 3) (UniProt P10600). Nature of the assay: cell-based or functional assay.
The target of assay [2] is human TGFβ1 (transforming growth factor beta 1) (human) (UniProt P01137). Nature of the assay: cell-based or functional assay.
The target in assay [3] is human TGFβ2 (transforming growth factor beta 2) (human) (UniProt P61812). Nature of the assay: cell-based or functional assay.
Sequence of human TGFβ2 (transforming growth factor beta 2) (human) (P61812 303-414): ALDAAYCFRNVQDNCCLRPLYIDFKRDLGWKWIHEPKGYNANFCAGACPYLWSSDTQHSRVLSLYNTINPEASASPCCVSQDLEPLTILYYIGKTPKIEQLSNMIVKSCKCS
The target in assay [4] is human TGFβ1 (transforming growth factor beta 1) (human) (UniProt P01137). The assay is described as follows: A549 cell radioreceptor assay, inhibition of 125I-TGFβ1 binding to receptors.
Assay [5] deals with human TGFβ2 (transforming growth factor beta 2) (human) (UniProt P61812). The assay is described as follows: A549 cell radioreceptor assay, inhibition of 125I-TGFβ2 binding to receptors.
The target of assay [6] is TGFβ3 (transforming growth factor beta 3) (UniProt P10600). Nature of the assay: A549 cell radioreceptor assay, inhibition of 125I-TGFβ3 binding to receptors.
Sequence of TGFβ3 (transforming growth factor beta 3) (P10600 301-412 limits assumed): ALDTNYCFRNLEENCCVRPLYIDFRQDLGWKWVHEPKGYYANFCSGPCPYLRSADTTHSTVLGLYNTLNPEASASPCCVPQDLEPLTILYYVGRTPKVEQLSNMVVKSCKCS

Sequence of human TGFβ1 (transforming growth factor beta 1) (human) (P01137 279-390 limits assumed): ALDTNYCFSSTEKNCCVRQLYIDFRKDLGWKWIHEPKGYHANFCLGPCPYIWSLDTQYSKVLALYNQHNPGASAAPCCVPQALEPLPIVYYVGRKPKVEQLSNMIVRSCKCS

Consider “mouse monoclonal antibody from Genzyme (Mouse anti-TGF β1,2,3; J.R. Dasch et al.)”, for which the values for the TF1 cell proliferation assay IC50 (nM IgG) in assay [1], in assay [2] and in assay [3] were 0.1 nM, 1.5 nM and 10 nM, respectively. For the same substance, the IC50 in assay [4] came to 0.55 nM; in assay [5] it was 0.5 nM; in assay [6], 0.03 nM.
